{"source": "paper doi:10.1101/2020.02.11.943977", "test_in_all_cases": "EMSA", "key": {"[1]": {"molecular_target": "T1, Replication protein A (RPA heterotrimer) (human, UniProt P27694;P15927;P35244 1-616;1-270;1-121)", "T1 sequence (P27694 whole entry, chain 1 of 3)": "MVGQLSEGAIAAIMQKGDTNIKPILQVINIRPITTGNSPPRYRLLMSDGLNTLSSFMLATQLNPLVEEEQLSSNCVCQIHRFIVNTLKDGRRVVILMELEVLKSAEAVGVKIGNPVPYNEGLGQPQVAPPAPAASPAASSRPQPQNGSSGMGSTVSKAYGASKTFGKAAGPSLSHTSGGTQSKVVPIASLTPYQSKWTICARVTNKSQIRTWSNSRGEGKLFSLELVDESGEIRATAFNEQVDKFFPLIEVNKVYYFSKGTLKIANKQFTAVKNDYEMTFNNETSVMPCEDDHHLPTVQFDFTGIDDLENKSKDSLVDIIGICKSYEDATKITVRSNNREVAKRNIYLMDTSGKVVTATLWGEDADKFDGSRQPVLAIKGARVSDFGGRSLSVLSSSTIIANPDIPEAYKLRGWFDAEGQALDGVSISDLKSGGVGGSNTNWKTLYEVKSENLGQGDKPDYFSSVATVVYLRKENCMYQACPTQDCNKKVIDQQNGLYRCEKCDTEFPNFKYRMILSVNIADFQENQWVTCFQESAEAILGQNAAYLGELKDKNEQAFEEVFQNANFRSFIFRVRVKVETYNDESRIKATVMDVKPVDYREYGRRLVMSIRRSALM", "T1 sequence (P15927 whole entry, chain 2 of 3)": "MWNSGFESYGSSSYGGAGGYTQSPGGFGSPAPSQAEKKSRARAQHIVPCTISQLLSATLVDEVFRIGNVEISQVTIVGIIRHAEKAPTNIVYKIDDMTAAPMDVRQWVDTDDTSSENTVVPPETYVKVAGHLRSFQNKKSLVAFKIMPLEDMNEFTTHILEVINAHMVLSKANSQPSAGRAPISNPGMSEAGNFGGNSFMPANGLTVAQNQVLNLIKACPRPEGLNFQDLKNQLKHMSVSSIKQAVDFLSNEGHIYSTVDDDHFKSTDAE", "T1 sequence (P35244 whole entry, chain 3 of 3)": "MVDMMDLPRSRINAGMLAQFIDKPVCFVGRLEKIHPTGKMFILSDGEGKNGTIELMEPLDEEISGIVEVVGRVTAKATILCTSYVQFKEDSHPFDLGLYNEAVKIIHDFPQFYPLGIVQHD"}, "[2]": {"molecular_target": "T1, Replication protein A (RPA heterotrimer)", "remark": "listed apart in the source"}, "[3]": {"molecular_target": "T1, Replication protein A (RPA heterotrimer)", "remark": "listed apart in the source"}, "[4]": {"molecular_target": "T1, Replication protein A (RPA heterotrimer)", "remark": "listed apart in the source"}, "[5]": {"molecular_target": "T1, Replication protein A (RPA heterotrimer)", "remark": "listed apart in the source"}}, "note": "Where two headings read alike, the source gives them in different places.", "data": [{"binder": "GAAGCAUUUAUCAGGGUUAUUGUCUCAUGAGCGGAUACAUAUUUGAAU (ssRNA)", "note": "[RNA no. 501]", "values": [{"measurement": "Kd", "setting": "[1]", "value": "72 ± 10.2", "unit": "pM"}, {"measurement": "Kd", "setting": "[2]", "value": "101 ± 17", "unit": "pM"}]}, {"binder": "GAAGCAUUUAUCAGGGUUAUUGUCUCAUGAGCGGAU (ssRNA)", "note": "[RNA no. 6R (36 nt)]", "values": [{"measurement": "apparent K (half saturation)", "setting": "[3]", "value": 65, "unit": "nM"}]}, {"binder": "GAAGCAUUUAUCAGGGUUAUUGUC (ssRNA)", "note": "[RNA no. 5R (24 nt)]", "values": [{"measurement": "apparent K (half saturation)", "setting": "[3]", "value": 120, "unit": "nM"}]}, {"binder": "GAAGCATTTATCAGGGTTATTGTCTCATGAGCGGATACATATTTGAAT (ssDNA)", "note": "[ssDNA no. 211]", "values": [{"measurement": "Kd", "setting": "[2]", "value": "3.1 ± 0.6", "unit": "pM"}]}, {"binder": "dsDNA nos. 211/212 (dsDNA) DNA 1: GAAGCATTTATCAGGGTTATTGTCTCATGAGCGGATACATATTTGAAT DNA 2: ATTCAAATATGTATCCGCTCATGAGACAATAACCCTGATAAATGCTTC", "values": [{"measurement": "Kd", "setting": "[2]", "value": "35500 ± 7000", "unit": "pM"}]}, {"binder": "RNA-DNA hybrid nos. 501/212 (DNA:RNA) RNA: GAAGCAUUUAUCAGGGUUAUUGUCUCAUGAGCGGAUACAUAUUUGAAU DNA: ATTCAAATATGTATCCGCTCATGAGACAATAACCCTGATAAATGCTTC", "values": [{"measurement": "Kd", "setting": "[2]", "value": "85900 ± 4500", "unit": "pM"}]}, {"binder": "AAUGCUUAAUCAGUGAGGCACCUAUCUCAGCGAUCUGUCUAUUUCGUU (ssRNA)", "note": "[RNA no. 3R]", "values": [{"measurement": "Kd", "setting": "[4]", "value": "100 ± 23.2", "unit": "pM"}]}, {"binder": "CGUUAAGGGAUUUUGGUCAUGAGAUUAUCAAAAAGGAUCUUCACCUAG (ssRNA)", "note": "[RNA no. 7R]", "values": [{"measurement": "Kd", "setting": "[5]", "value": "248 ± 32.7", "unit": "pM"}]}, {"binder": "UUUUAAAUCAAUCUAAAGUAUAUAUGAGUAAACUUGGUCUGACAGUUA (ssRNA)", "note": "[RNA no. 8R]", "values": [{"measurement": "Kd", "setting": "[5]", "value": "62.9 ± 8.2", "unit": "pM"}]}]}
